The labels stand for the following.
B1: GST–syntaxin-5 (domain or fragment)
chain: MIPRKRYGSKNTDQGVYLGLSKTQVLSPATAINSSSDIAPLPTPVALVPSPPDTMSCRDRTQEFLSACKSLQSRQNGIQTNKPALHATRQCSEFTLMARRIGKDLSNTFAKLEKLTILAKRKSLFDDKAVEIEELTYIIKQDINSLNKQIAQLQDFVRAKGSQSGRHLQTHSNTIVVSLQSKLASMSNDFKSVLEVRTENLKQQRNRREQFSRAPVSALPLAPNNLGGGPIVLGGESRASRDVAIDMMDPRTSQQLQLIDEQDSYIQSRADTMQNIESTIVELGSIFQQLAHMVKEQEETIQRIDENVLGAQLDVEAAHSEILKYFQSVTSNR
B2: CC1 (aa 637–699 of rat p115) (peptide)
peptide: Biotin-KEEEVKKTLEQHDNIVTHYKNMIREQDLQLEELKQQVSTLKCQNEQLQTAVTQQASQIQQHKD
B3: CC4 (aa 843–930 of rat p115) (peptide)
peptide: TTDVEGRLSALLQETKELKNEIKALSEERTAIQKQLDSSNSTIAILQTEKDKLYLEVTDSKKEQDDLLVLLADQDQKILSLKSKLKDL
modifications: NH2-terminally biotinylated
B4: syntaxin-5 (endogenous) (natural protein)
chain: MIPRKRYGSKNTDQGVYLGLSKTQVLSPATAINSSSDIAPLPTPVALVPSPPDTMSCRDRTQEFLSACKSLQSRQNGIQTNKPALHATRQCSEFTLMARRIGKDLSNTFAKLEKLTILAKRKSLFDDKAVEIEELTYIIKQDINSLNKQIAQLQDFVRAKGSQSGRHLQTHSNTIVVSLQSKLASMSNDFKSVLEVRTENLKQQRNRREQFSRAPVSALPLAPNNLGGGPIVLGGESRASRDVAIDMMDPRTSQQLQLIDEQDSYIQSRADTMQNIESTIVELGSIFQQLAHMVKEQEETIQRIDENVLGAQLDVEAAHSEILKYFQSVTSNRWLMVKIFLILIVFFIIFVVFLA
B5: His–GOS-28 (domain or fragment)
chain: AAGTSNYWEDLRKQARQLENELDLKLVSFSKLCTSYSHSSARDGGRDRYSSDTTPLLNGSSQDRMFETMAIEIEQLLARLTGVNDKMAEYTHSAGVPSLNAALMHTLQRHRDILQDYTHEFHKTKANFMAIRERENLMGSVRKDIESYKSGSGVNNRRTELFLKEHDHLRNSDRLIEETISIAMATKENMTSQRGMLKSIHSKMNTLANRFPAVNSLIQRINLRKRRD
B6: GOS-28 (endogenous) (natural protein)
chain: MAAGTSNYWEDLRKQARQLENELDLKLVSFSKLCTSYSHSSARDGGRDRYSSDTTPLLNGSSQDRMFETMAIEIEQLLARLTGVNDKMAEYTHSAGVPSLNAALMHTLQRHRDILQDYTHEFHKTKANFMAIRERENLMGSVRKDIESYKSGSGVNNRRTELFLKEHDHLRNSDRLIEETISIAMATKENMTSQRGMLKSIHSKMNTLANRFPAVNSLIQRINLRKRRDSLILGGVIGICTILLLLYAFH
B7: Ykt6p (endogenous) (natural protein)
chain: MKLYSLSVFYKGEPKAVLLKAAYDVSSFSFFQRSSVQEFMTFTSQLIVERSAKGSRASVKEQEYLCHVYVRSDSLAGVVIADSEYPSRVAFTLLEKVLDEFSKQVDRIDWPVGSPATIHYTALDGHLSRYQNPREADPMSKVQAELDETKIILHNTMESLLERGEKLDDLVSKSEVLGTQSKAFYKTARKQNSCCAIM

No end group written: not given here. *: point of attachment. Biotin = O=C1N[C@H]2[C@H](CS[C@H]2CCCCC(=O)*)N1

One data set deals with T1, p115 (rat, UniProt P41542 1-959).
T1 sequence: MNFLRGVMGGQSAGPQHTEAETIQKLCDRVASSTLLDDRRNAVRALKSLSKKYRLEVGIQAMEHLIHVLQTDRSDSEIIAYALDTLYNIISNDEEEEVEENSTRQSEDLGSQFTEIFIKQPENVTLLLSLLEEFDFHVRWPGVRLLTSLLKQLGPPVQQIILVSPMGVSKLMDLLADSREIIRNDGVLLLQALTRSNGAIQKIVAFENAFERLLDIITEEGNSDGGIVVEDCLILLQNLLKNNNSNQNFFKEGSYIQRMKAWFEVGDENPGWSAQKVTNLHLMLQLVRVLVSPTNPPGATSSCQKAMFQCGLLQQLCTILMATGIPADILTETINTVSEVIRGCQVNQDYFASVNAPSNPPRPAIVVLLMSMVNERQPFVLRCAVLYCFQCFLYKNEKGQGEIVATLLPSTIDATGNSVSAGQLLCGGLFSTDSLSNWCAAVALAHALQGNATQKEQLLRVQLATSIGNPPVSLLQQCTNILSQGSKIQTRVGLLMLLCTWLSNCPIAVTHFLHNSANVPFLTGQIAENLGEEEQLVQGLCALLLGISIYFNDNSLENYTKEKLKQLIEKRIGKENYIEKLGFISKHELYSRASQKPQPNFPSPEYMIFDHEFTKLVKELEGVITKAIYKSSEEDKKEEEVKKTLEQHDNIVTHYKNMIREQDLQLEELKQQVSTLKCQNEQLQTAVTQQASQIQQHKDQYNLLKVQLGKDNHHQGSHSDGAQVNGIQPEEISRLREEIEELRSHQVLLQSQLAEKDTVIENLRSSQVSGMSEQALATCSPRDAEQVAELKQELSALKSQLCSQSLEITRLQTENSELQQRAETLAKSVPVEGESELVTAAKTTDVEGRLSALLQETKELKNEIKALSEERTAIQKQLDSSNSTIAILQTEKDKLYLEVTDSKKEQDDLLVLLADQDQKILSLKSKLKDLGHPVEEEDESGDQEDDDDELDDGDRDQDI
In words: pull-down.

Data set [1] concerns the molecule itself. Put plainly: SEC + other: laser light scattering + native gel or EMSA. In general terms: In EMSA bound probe runs differently from free probe, usually more slowly.
The target of the next data set is T2, GS15 (endogenous) (rat (endogenous in rat liver Golgi …, UniProt O35152 1-111)).
T2 sequence: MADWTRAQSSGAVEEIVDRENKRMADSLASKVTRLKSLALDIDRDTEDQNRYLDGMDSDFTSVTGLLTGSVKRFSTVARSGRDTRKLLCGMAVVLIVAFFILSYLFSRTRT
In words: co-IP.

For the data set “GST–syntaxin-5”, the target named is B1. In words: pull-down.

By Kd is commonly meant the equilibrium constant for the complex coming apart.

Turning to B1, the affinity with p115, expressed as Kd, was 1800 nM.

Regarding B2, in data set [1], the percent dimeric was around 20% and the percent tetrameric was around 10%.

Turning to B3, in data set [1], the percent dimeric is around 20% and the percent tetrameric is around 10%.

Take Biotin-QPEEISRLREEIEELRSHQVLLQSQLAEKDTVIENLRS [CC2 (aa 728–765 of rat p115)]: in data set [1], the percent dimeric is around 20% and the percent tetrameric is around 10%.

As for Biotin-DAEQVAELKQELSALKSQLCSQSLEITRLQTENSELQQRAETLAK [CC3 (aa 783–827 of rat p115)], in data set [1], the percent dimeric was around 20% and the percent tetrameric was around 10%.

Turning to B4, the “fold enhancement of complex formation by p115 against no p115” value (from here on “fold enhancement … against no p115”) with GS15 (endogenous) was around 5 fold.

Consider B5, for which the “fold stimulation of the interaction by p115 against no p115” value with GST–syntaxin-5 amounted to 4 fold. Also, in the data set with p115, the affinity, expressed as Kd, was 1500 nM.

On to B6, for which the “fold enhancement … against no p115” value with GS15 (endogenous) was around 5 fold.

Turning to B7, in the data set with GS15 (endogenous), the “fold enhancement … against no p115” value is around 5 fold.

Values taken from publication PMC2173270 (The Journal of Cell Biology, 2002).
